Earlier results in PMC3995210.

Target: dynein intermediate chain (IC) (Drosophila melanogaster) (UniProt Q24246)
Test: ITC

Chain of UniProt Q24246 (Q24246 whole entry): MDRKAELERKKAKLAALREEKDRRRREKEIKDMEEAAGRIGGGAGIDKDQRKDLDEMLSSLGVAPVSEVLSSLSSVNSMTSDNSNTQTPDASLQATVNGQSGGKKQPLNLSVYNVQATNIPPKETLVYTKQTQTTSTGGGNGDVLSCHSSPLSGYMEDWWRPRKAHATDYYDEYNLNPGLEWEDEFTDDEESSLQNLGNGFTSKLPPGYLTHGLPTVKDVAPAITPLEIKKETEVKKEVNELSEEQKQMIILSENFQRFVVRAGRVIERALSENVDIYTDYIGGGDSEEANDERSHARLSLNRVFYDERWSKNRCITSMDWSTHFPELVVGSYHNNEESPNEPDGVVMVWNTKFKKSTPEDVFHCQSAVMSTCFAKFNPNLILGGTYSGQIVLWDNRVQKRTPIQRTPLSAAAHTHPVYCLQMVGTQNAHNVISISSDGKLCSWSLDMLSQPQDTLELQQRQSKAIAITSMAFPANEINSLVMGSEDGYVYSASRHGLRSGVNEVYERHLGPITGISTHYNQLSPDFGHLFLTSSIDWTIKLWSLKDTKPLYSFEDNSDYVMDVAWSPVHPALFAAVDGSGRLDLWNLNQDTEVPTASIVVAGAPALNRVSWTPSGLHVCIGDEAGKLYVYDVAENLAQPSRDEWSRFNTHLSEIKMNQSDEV

In the case of LC8 (from UniProt Q24117), the Kd is given as 9.8 µM.
